According to paper PMC10076392, “Structure of the heterotrimeric membrane protein complex FtsB-FtsL-FtsQ of the bacterial divisome” (Nature Communications, 2023):

Biological target: T1, FtsW-FtsI complex, His-tagged (E. coli strain K12, UniProt P0ABG4 1-414; P0AD68 1-577)
T1 construct: FtsW, transglycosylase, E. coli strain K12 (ATCC10798D-5), amplified from the genome with primers W-F and W-R; also called FtsWI; His-tagged FtsWI; source: E. coli C43, co-expressed from pETduet-FtsWI, purified (Ni-NTA, Superdex-200) in DDM
T1 sequence (looked up) 1: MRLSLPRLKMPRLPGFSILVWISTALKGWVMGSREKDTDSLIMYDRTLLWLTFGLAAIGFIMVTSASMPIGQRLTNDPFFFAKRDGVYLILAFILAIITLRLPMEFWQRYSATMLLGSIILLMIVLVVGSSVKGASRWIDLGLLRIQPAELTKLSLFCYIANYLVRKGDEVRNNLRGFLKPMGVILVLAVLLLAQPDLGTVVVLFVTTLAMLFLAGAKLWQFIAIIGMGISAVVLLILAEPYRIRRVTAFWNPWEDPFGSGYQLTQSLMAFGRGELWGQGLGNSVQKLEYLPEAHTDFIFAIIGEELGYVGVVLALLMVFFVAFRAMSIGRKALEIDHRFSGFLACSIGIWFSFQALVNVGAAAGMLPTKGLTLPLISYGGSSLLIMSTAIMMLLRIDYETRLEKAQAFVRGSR
T1 sequence (looked up) 2: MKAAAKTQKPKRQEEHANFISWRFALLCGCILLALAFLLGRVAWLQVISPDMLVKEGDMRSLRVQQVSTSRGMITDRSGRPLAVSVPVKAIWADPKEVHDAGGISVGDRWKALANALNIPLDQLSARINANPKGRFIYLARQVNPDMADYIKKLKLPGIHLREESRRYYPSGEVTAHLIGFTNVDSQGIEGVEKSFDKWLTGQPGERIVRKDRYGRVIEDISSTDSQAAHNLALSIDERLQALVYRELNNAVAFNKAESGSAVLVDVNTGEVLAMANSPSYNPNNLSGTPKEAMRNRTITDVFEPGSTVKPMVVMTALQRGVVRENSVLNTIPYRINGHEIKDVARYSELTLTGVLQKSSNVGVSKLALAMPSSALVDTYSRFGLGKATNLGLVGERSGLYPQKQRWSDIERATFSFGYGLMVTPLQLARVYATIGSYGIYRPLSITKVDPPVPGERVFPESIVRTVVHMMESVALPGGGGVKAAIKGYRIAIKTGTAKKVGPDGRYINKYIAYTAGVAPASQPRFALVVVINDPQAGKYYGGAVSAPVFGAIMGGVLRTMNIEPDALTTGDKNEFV
Test: BLI; His-tagged protein loaded at 50 μg/ml on HIS1K (Anti-Penta-HIS) biosensors; analyte in threefold dilutions 0.016-4 µM; 200 mM NaCl, 20 mM HEPES pH7.5, 0.1% DDM; 240 sec association and dissociation; Octet HTX
Conditions: both partners purified

B1: PBP1b (aa58-804) (enzyme, E. coli strain K12, UniProt P02919 58-804, looked up)
chain: KPRGKRGWLWLLLKLAIVFAVLIAIYGVYLDQKIRSRIDGKVWQLPAAVYGRMVNLEPDMTISKNEMVKLLEATQYRQVSKMTRPGEFTVQANSIEMIRRPFDFPDSKEGQVRARLTFDGDHLATIVNMENNRQFGFFRLDPRLITMISSPNGEQRLFVPRSGFPDLLVDTLLATEDRHFYEHDGISLYSIGRAVLANLTAGRTVQGASTLTQQLVKNLFLSSERSYWRKANEAYMALIMDARYSKDRILELYMNEVYLGQSGDNEIRGFPLASLYYFGRPVEELSLDQQALLVGMVKGASIYNPWRNPKLALERRNLVLRLLQQQQIIDQELYDMLSARPLGVQPRGGVISPQPAFMQLVRQELQAKLGDKVKDLSGVKIFTTFDSVAQDAAEKAAVEGIPALKKQRKLSDLETAIVVVDRFSGEVRAMVGGSEPQFAGYNRAMQARRSIGSLAKPATYLTALSQPKIYRLNTWIADAPIALRQPNGQVWSPQNDDRRYSESGRVMLVDALTRSMNVPTVNLGMALGLPAVTETWIKLGVPKDQLHPVPAMLLGALNLTPIEVAQAFQTIASGGNRAPLSALRSVIAEDGKVLYQSFPQAERAVPAQAAYLTLWTMQQVVQRGTGRQLGAKYPNLHLAGKTGTTNNNVDTWFAGIDGSTVTITWVGRDNNQPTKLYGASGAMSIYQRYLANQTPTPLNLVPPEDIADMGVDYDGNFVCSGGMRILPVWTSDPQSLCQQSEMQQQPS
notes: PBP1b, bi-functional peptidoglycan synthase, E. coli strain K12 (ATCC10798D-5), residues 58-804; Analyte in BLI; source: E. coli C43, from pET15b-PBP1b, purified (Ni-NTA, Superdex-200) in DDM
binding result: binds
